The target in assay [1] is thrombin. Nature of the assay: cell-based or functional assay.
In assay [2] the target is thrombin. Nature of the assay: SPR (Biacore 3000), 50 nM TM irradiated with 1.77 Gy over immobilized thrombin; reference is sham-irradiated (0 Gy) TM; 3 experiments. (Surface plasmon resonance follows binding to a sensor surface in real time, without labels.)
Assay [3] has as its target thrombin. The assay can be described thus: SPR (Biacore 3000), 50 nM TM irradiated with 20 Gy over immobilized thrombin; reference is sham-irradiated (0 Gy) TM; 3 experiments.
Assay [4] has as its target thrombin. The assay can be described thus: SPR (Biacore 3000), 50 nM TM irradiated with 80 Gy over immobilized thrombin; reference is sham-irradiated (0 Gy) TM; 3 experiments.

For the substance “recombinant full length human thrombomodulin (from UniProt P07204 19-515) (receptor)”, the mean reduction in protein C activation, TM exposed to 1.77 Gy without MPO in the assay with thrombin [1] was 12%. In addition, in the assay with thrombin [1], the reduction in protein C activation, TM exposed to 1.77 Gy in the presence of MPO was 40%. The values for the decrease of average RU value relative to baseline (0 Gy) with thrombin [2], with thrombin [3] and in the assay with thrombin [4] were 13.2%, 18.9% and 21.6%, respectively.

These data come from patent US20110144024A1.
